# Publication PMC3295541 (Biochemistry, 2010)
# Columns and labels:
# PdxB = PdxB (Escherichia coli, UniProt P05459); experiment: coupled assay with SerC and PdxA, NADH formation at […] nm; format: biochemical
# purified protein [1] = substrate: CC(=O)C(=O)O; experiment: purified protein; format: biochemical, Escherichia coli; details: 4PE 29 μM, TND buffer pH 8.0, room temperature
# purified protein [2] = substrate: O=C(O)CC(=O)C(=O)O; experiment: purified protein; format: biochemical, Escherichia coli; details: 4PE 29 μM, TND buffer pH 8.0, room temperature
# purified protein [3] = substrate: O=C(O)CCC(=O)C(=O)O; experiment: purified protein; format: biochemical, Escherichia coli; details: 4PE 29 μM, TND buffer pH 8.0, room temperature
# purified protein [4] = substrate: O=C(O)[C@H](O)[C@H](O)COP(=O)(O)O; experiment: purified protein; format: biochemical, Escherichia coli; details: αKG 2 mM, TND buffer pH 8.0, room temperature
# SEC = target: the molecule itself; experiment: SEC
IC50 (PdxB) [µM],Molecule,Km (purified protein [1]) [µM],kcat (purified protein [1]) [s⁻¹],kcat/Km (purified protein [1]) [M⁻¹ s⁻¹],Km (purified protein [2]) [µM],kcat (purified protein [2]) [s⁻¹],kcat/Km (purified protein [2]) [M⁻¹ s⁻¹],Km (purified protein [3]) [µM],kcat (purified protein [3]) [s⁻¹],kcat/Km (purified protein [3]) [M⁻¹ s⁻¹],Km (purified protein [4]) [µM],stoichiometry N (SEC)
> 2000,O=C(O)CC[C@H](O)C(=O)O [L-2-HGA],,,,,,,,,,,
,"PdxB (4-phospho-D-erythronate dehydrogenase) from E. coli (enzyme, UniProt P05459 1-378, looked up) MKILVDENMPYARDLFSRLGEVTAVPGRPIPVAQLADADALMVRSVTKVNESLLAGKPIKFVGTATAGTDHVDEAWLKQAGIGFSAAPGCNAIAVVEYVFSSLLMLAERDGFSLYDRTVGIVGVGNVGRRLQARLEALGIKTLLCDPPRADRGDEGDFRSLDELVQRADILTFHTPLFKDGPYKTLHLADEKLIRSLKPGAILINACRGAVVDNTALLTCLNEGQKLSVVLDVWEGEPELNVELLKKVDIGTSHIAGYTLEGKARGTTQVFEAYSKFIGHEQHVALDTLLPAPEFGRITLHGPLDQPTLKRLVHLVYDVRRDDAPLRKVAGIPGEFDKLRKNYLERREWSSLYVICDDASAASLLCKLGFNAVHHPAR",128 ± 20,1.3 ± 0.14,9900 ± 160,86 ± 19,1.1 ± 0.31,13000 ± 2100,93 ± 19,1 ± 0.24,11000 ± 2400,2.9 ± 1.3,2
